The source of these data is paper PMC3877047 (PLoS ONE, 2013).

By Kd is commonly meant a measure of binding affinity in units of concentration. Low values mean tighter binding, high ones weaker binding. For orientation: stoichiometry N means the number of molecules, sites or subunits per partner or assembly.

T1: HMunc18c (His6-tagged full-length mouse Munc18c from a codon-optimised synthetic gene in pQE30) (mouse, UniProt Q60770 1-592)
T1 construct: Monomer by SEC-MALS; also called pQE30-His6-Munc18c; bacterially expressed Munc18c; source: E. coli BL21, co-expressed with GroEL/GroES, purified (IMAC PrepEase, SEC, MonoS IEC); not shown: His6, N-terminal, kept
T1 sequence (looked up): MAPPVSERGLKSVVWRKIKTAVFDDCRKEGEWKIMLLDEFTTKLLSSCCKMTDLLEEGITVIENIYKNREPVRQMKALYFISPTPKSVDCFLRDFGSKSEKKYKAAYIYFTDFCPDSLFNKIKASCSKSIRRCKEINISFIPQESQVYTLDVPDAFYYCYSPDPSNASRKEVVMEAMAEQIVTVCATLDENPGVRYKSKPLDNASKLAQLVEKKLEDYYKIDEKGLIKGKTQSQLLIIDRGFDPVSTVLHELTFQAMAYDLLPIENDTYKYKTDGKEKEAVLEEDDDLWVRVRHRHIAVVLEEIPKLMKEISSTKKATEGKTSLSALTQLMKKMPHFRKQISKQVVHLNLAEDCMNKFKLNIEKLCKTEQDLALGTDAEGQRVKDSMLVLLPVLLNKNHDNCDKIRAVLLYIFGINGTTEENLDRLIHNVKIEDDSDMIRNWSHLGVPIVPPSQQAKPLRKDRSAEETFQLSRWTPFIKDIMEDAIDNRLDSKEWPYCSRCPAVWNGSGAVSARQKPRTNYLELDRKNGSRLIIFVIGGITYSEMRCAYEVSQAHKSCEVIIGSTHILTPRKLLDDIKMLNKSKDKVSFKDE

B1: Sx4(1-275)-His (C-terminally His6-tagged Syntaxin4 C141S, residues 1-275) (domain or fragment, UniProt P70452 1-275, looked up)
chain: MRDRTHELRQGDNISDDEDEVRVALVVHSGAARLGSPDDEFFQKVQTIRQTMAKLESKVRELEKQQVTILATPLPEESMKQGLQNLREEIKQLGREVRAQLKAIEPQKEEADENYNSVNTRMKKTQHGVLSQQFVELINKSNSMQSEYREKNVERIRRQLKITNAGMVSDEELEQMLDSGQSEVFVSNILKDTQVTRQALNEISARHSEIQQLERSIRELHEIFTFLATEVEMQGEMINRIEKNILSSADYVERGQEHVKIALENQKKARKKKVM
notes: source: also in lysate for the co-purification; not shown: His6, C-terminal, kept
B2: Munc18c (un-tagged) (natural protein, mouse, UniProt Q60770 1-592, looked up)
chain: T1 sequence (looked up)
notes: made from pQE30-HMunc18c by PCR that removes the His6 codons; A few vector-encoded residues may be left at the N-terminus (surmised); also called untagged Munc18c; un-tagged Munc18c

For experiment [1], the target named is T1, HMunc18c (His6-tagged full-length mouse …). As to the kind of experiment: ITC; 298 K, iTC200; Sx4(1-275)-His 200-220 µM titrated into 20-30 µM HMunc18c in the cell; 25 mM HEPES pH 8, 200 mM NaCl, 10% glycerol, 2 mM β-ME; single site model; four replicates, mean ± SEM. To be noted: both partners purified. A general note: Isothermal titration calorimetry measures the heat released or taken up as one component is titrated into another.

For experiment [2], the target named is B1. In words: pull-down + SEC; lysates of un-tagged Munc18c and Sx4(1-275)-His mixed 3:1 by volume, captured on TALON beads, eluted, Superdex 200 in 25 mM Tris-HCl pH 7.5, 300 mM NaCl, 10% glycerol; peak fractions on SDS-PAGE. Conditions: partners not purified.

Regarding B1, in experiment [1], the Kd amounted to 104 nM, the dH is -11 kcal/mol and the “stoichiometry N” value was found to be 0.97.

Take B2: the “stoichiometry N” value in experiment [2] was found to be 1.
